Results as given in patent publication US20040058870A1 (Bayer, published 2004).
Read-outs that look alike come from different tables or passages of the source. Ends that are not written are not given here.

Tests used:
Assay in all cases: cell-based or functional assay
VPAC2 receptor [1] = biological target: T1, VPAC2 receptor (human, UniProt P41587 24-438)
T1 sequence (looked up): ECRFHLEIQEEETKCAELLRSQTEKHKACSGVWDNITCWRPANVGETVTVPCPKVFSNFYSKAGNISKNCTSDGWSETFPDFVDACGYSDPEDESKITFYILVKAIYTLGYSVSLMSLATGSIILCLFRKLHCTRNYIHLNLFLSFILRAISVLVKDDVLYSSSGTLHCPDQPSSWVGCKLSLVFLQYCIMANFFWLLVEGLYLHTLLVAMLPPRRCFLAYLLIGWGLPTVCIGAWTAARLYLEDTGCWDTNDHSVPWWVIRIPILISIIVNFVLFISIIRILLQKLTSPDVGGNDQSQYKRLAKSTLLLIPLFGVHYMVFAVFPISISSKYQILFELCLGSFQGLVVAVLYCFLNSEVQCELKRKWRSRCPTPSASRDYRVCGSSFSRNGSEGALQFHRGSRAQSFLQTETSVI

VPAC1 receptor = biological target: T2, VPAC1 receptor (UniProt P32241 31-457, limits assumed)
T2 sequence (looked up): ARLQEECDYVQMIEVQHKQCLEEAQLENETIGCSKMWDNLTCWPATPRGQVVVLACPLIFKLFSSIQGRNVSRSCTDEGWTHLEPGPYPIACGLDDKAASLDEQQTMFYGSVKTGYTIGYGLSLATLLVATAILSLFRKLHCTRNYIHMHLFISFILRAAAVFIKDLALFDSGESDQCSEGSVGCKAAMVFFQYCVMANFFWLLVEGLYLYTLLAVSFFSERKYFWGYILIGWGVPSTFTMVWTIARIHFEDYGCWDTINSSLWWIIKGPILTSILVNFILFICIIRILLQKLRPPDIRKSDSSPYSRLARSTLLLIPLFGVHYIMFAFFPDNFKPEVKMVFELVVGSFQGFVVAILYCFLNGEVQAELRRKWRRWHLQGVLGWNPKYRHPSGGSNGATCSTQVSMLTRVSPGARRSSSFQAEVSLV

VPAC2 receptor [2] = biological target: T1, VPAC2 receptor; remark: listed apart in the source
VPAC2 receptor [3] = biological target: T1, VPAC2 receptor; remark: listed apart in the source

Molecule | EC50 (nM), cAMP SPA (VPAC2 receptor [1]) | EC50 (nM), cAMP SPA (VPAC1 receptor) | maximal level of receptor activation relative to PACAP-27, cAMP SPA (VPAC2 receptor [2]) | EC50 (nM), cAMP SPA (VPAC2 receptor [3])
PACAP-27 (from UniProt P18509 132-158) (peptide) | 0.09 nM |  |  | 
HSDAVFTDQYTRLRKQVAAKKYLQSIKQKRYC (ends and bridges not checked) [P12] |  | > 1000 nM |  | 
HSDAVFTDQYTRLRKQVAAKKYLQSIKQKRYC (22 kD PEG on the C-terminal Cys via maleimide (thioether) linkage) [P12 plus 22 kD PEG] |  | > 1000 nM |  | 
HSDAVFTDQYTRLRKQVAAKKYLQSIKQKRYC (43 kD PEG on the C-terminal Cys via maleimide (thioether) linkage) [P12 plus 43 kD PEG] |  | > 1000 nM |  | 
HTEAVFTDQYTRLRKQVAAKKYLQSIKQKRY [P7] |  | > 1000 nM | 100% | 7.81 nM
Ac-HTDAVFTDQYTRLRKQVAAKKYLQSIKQKRY (ends and bridges not checked) [P8] |  | 130 nM | 100% | 0.19 nM
HSDAVFTDQYTRLRKQVAAKKYLQSIKQKRY [P5] |  | 232 nM |  | 
